Results as given in the supplement of paper PMC9732359.
± gives the uncertainty stated by the source.

Assay: protein stability index of a GFP-peptide fusion (yeast GPS) (PSI 1-4); higher = more stable; sorted into four equal gates, so the index is relative within each strain
How it was run: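 Tiled 17-residue yeast protein peptides were fused downstream of GFP in a plasmid that also expresses Cherry, and the pooled library was carried in yeast. Mid-log cultures in leucine-free medium were sorted into four equal gates by GFP/Cherry fluorescence ratio, and plasmids from each gate were PCR-amplified and Illumina-sequenced, with reads assigned to strains by barcodes. The protein stability index for each peptide was each gate's read frequency times its gate number, summed.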

| Sequence | protein stability index (doa10∆) | protein stability index (pdr5∆) | protein stability index (san1∆) | protein stability index (ubr1∆) |
| --- | --- | --- | --- | --- |
| CRKCYARLPPRATNCRK [RPL40A] | 3.09 ± 0.23 | 3.71 ± 0.28 | 3.13 ± 0.14 | 2.92 ± 0.13 |
| DEEAAGASTVMKTKTIN [PRP8] | 3.34 ± 0.089 | 3.12 ± 0.071 | 3.28 ± 0.063 | 3.19 ± 0.061 |
| PQWKRHLEEYGYLIQVL [YCS4] | 2.27 ± 0.052 | 2.73 ± 0.057 | 2.02 ± 0.095 | 2.5 ± 0.047 |
| DERSQGEKNFTSAHLKL [SMC4] | 3.17 ± 0.16 | 3.4 ± 0.13 | 3.14 ± 0.076 | 3.36 ± 0.11 |
| LVESVDRFKPNLDIAKD [MED4] | 3.37 ± 0.29 | 3.33 ± 0.17 | 3.15 ± 0.072 | 2.9 ± 0.15 |
| TVPRIVQLLSKSHNAHV [RPN2] | 1.91 ± 0.056 | 1.69 ± 0.044 | 2.08 ± 0.067 | 1.98 ± 0.048 |
| PALESSPVTGDNSPSED [SNF2] | 3.25 ± 0.067 | 3.29 ± 0.066 | 3.14 ± 0.069 | 3.33 ± 0.041 |
| EQTVSAVTEATSTNGDS [RGR1] | 3.45 ± 0.16 | 3.29 ± 0.077 | 3.28 ± 0.083 | 3.43 ± 0.12 |
| LTLTDSQLAQVAAFVNN [BRR2] | 2.14 ± 0.084 | 2.18 ± 0.099 | 2.37 ± 0.15 | 2.69 ± 0.061 |
| VYDFYGRHVATCSSDQH [YGL100W/SEH1] | 2.75 ± 0.068 | 2.32 ± 0.06 | 2.43 ± 0.072 | 2.2 ± 0.049 |
| PIPSKPTLFDLAFNYIT [SRP68] | 1.64 ± 0.051 | 1.54 ± 0.046 | 1.74 ± 0.071 | 2.02 ± 0.046 |
| SLDLNNLELGGLNMDFL [PGD1] | 3.24 ± 0.098 | 3.19 ± 0.099 | 3.37 ± 0.082 | 2.74 ± 0.11 |
| PKVKEIKTVVLVPQLGH [PRP8] | 1.93 ± 0.088 | 2.25 ± 0.08 | 1.94 ± 0.14 | 2.31 ± 0.048 |
| YQKNKPYPKSRYNRAVP [RPL10] | 2.91 ± 0.045 | 3.06 ± 0.045 | 3.06 ± 0.04 | 2.85 ± 0.038 |
| KLKECPFDMGGYFIING [RPB2] | 3 ± 0.078 | 3.07 ± 0.082 | 2.72 ± 0.073 | 3.07 ± 0.051 |
| SQFCYVSDDESNGEVLE [RPN14] | 3.41 ± 0.22 | – | – | 3.09 ± 0.1 |
| DSESDSDSETNHKSKDN [SKP1] | 2.75 ± 0.053 | 3.04 ± 0.051 | 3 ± 0.039 | 3.1 ± 0.044 |
| SNVNSDIYFKLKKLEKE [RPT3] | 3.22 ± 0.09 | 2.73 ± 0.09 | 2.93 ± 0.086 | 3.03 ± 0.072 |
| SPTINRANVYVGFLVQL [PRP8] | 2.6 ± 0.065 | 1.89 ± 0.066 | 1.98 ± 0.1 | 2.1 ± 0.063 |
| SALWSSRKGIAFGLGAI [ECM29] | 2.59 ± 0.13 | 2.89 ± 0.094 | 2.2 ± 0.13 | 2.55 ± 0.089 |
| LVQQIQKETQKVTKIWS [PRP28] | 2.39 ± 0.06 | 2.58 ± 0.064 | 2.52 ± 0.058 | 2.26 ± 0.047 |
| KTPVFTTGGDYILSLVS [YMR129W/POM152] | 2.06 ± 0.056 | 2.13 ± 0.058 | 1.74 ± 0.064 | 1.87 ± 0.044 |
| IALLTLKESVEGEFNGD [PRE8] | 2.77 ± 0.21 | 2.77 ± 0.17 | 2.64 ± 0.15 | 2.75 ± 0.11 |
| NIVDSSAAGNKAIPTFS [YIL149C/MLP2] | 2.31 ± 0.066 | 2.44 ± 0.077 | 3 ± 0.057 | 2.44 ± 0.059 |
| GESIMSEEPTDFGFDLD [MCD1] | 3.1 ± 0.13 | 3.25 ± 0.17 | 3.34 ± 0.072 | 3.24 ± 0.095 |
| VKKILPLYARYINVNPQ [ECM29] | 2.43 ± 0.056 | 2.15 ± 0.051 | 3.06 ± 0.051 | 2.72 ± 0.04 |

| Sequence | protein stability index (doa10∆) | protein stability index (pdr5∆) | protein stability index (san1∆) | protein stability index (ubr1∆) |
| --- | --- | --- | --- | --- |
| RELLVEGYGLRDVMCTD [RPO31] | 2.36 ± 0.063 | 2.57 ± 0.063 | 2.77 ± 0.066 | 2.95 ± 0.056 |
| GSENKRGSLDSEHVFDY [NUT1] | 3.37 ± 0.14 | 3.29 ± 0.11 | 3.32 ± 0.2 | 3.57 ± 0.05 |
| LDGVSYLHQNWVLHRDL [SSN3] | 2.34 ± 0.11 | 2.11 ± 0.081 | 2.77 ± 0.19 | 2.24 ± 0.087 |
| SGSLFGSNNAQTSRGLF [YGL172W/NUP49] | 3.03 ± 0.073 | 3.01 ± 0.06 | 2.95 ± 0.047 | 2.84 ± 0.064 |
| YHSGRLLIQGPKASSAK [ITC1] | 3.15 ± 0.11 | 3.29 ± 0.078 | 3.2 ± 0.059 | 3.17 ± 0.073 |
| LDSTGFDSTAFNATVDE [MED2] | 3.08 ± 0.048 | 3.27 ± 0.053 | 3.06 ± 0.053 | 3.07 ± 0.038 |
| FGKTTANLPANSSTSPA [YLR335W/NUP2] | 3.01 ± 0.047 | 3.14 ± 0.058 | 2.96 ± 0.045 | 3.12 ± 0.035 |
| SDIPVSENVFEGLTYKY [SSN3] | 1.82 ± 0.078 | 1.89 ± 0.1 | – | 1.98 ± 0.042 |
| NKSRSSGHFSTDSRTGQ [CDC53] | 3.03 ± 0.054 | 3.05 ± 0.052 | 3.12 ± 0.041 | 3.14 ± 0.039 |
| LSQQQKDAQKKDIEKLT [YIL149C/MLP2] | 2.79 ± 0.079 | 2.95 ± 0.069 | 2.78 ± 0.064 | 2.97 ± 0.075 |
| TYVEELFPIVKKHGKTD [YJL039C/NUP192] | 3.33 ± 0.14 | 3.44 ± 0.11 | 3.32 ± 0.12 | 3.19 ± 0.091 |
| SFLSGVKSLLSEEKIRD [SIR4] | 3.01 ± 0.088 | 3.11 ± 0.072 | 2.92 ± 0.063 | 2.92 ± 0.11 |
| ALNMLPSEILHLILDKL [GRR1] | 2.37 ± 0.13 | 2.07 ± 0.073 | 1.95 ± 0.13 | 2.03 ± 0.045 |
| KAPEAEQVLSAAATFPI [RPL13A] | 2.97 ± 0.071 | 2.76 ± 0.075 | 2.96 ± 0.078 | 2.81 ± 0.04 |
| SKHNERNKSAANNDINS [YDL088C/ASM4] | – | 3.21 ± 0.12 | – | 2.85 ± 0.12 |
| PNIADYITAKNNVVINF [PRP8] | 2.11 ± 0.087 | 1.26 ± 0.065 | 1.43 ± 0.28 | 1.26 ± 0.067 |
| FSEGTSADREIQRTLME [RPT4] | 3.41 ± 0.14 | 3.46 ± 0.084 | 3.29 ± 0.091 | 3.1 ± 0.087 |
| VPCDRIEKSRLFSEKTI [SNF6] | 2.58 ± 0.11 | 2.78 ± 0.058 | 2.62 ± 0.096 | 2.2 ± 0.044 |
| ANVDQISFLEPINLKFL [YMR129W/POM152] | 2.75 ± 0.057 | 2.89 ± 0.077 | 2.92 ± 0.054 | 2.91 ± 0.048 |
| ENDTNMNETLNLKVELK [SMC4] | 3.43 ± 0.2 | 3.17 ± 0.084 | 3.09 ± 0.13 | 2.99 ± 0.077 |
| PLRGALATYGLTIDDLG [FAS2] | 2.38 ± 0.087 | 2.51 ± 0.1 | 2.19 ± 0.1 | 2.72 ± 0.079 |
| FNLISNAGTEKEKESKK [YLR335W/NUP2] | 3.41 ± 0.077 | 3.35 ± 0.063 | 3.44 ± 0.044 | 3.45 ± 0.068 |
| RVHRLLRRGNYAQRIGS [HTA1] | 2.65 ± 0.23 | 2.77 ± 0.19 | 2.64 ± 0.094 | 2.74 ± 0.24 |
| RHFGMGPHKGKAPRILS [RPL18A] | 2.57 ± 0.14 | 2.52 ± 0.079 | 3.09 ± 0.13 | 2.73 ± 0.1 |
| EEGEYKNAANTEGHKGH [ISW2] | 3.31 ± 0.062 | 3.16 ± 0.069 | 3.31 ± 0.064 | 3.21 ± 0.053 |
| EEQDVDMTGDEEQEEEP [RPC19] | – | – | – | 2.76 ± 0.28 |
